Measured values from the DeepSol protein solubility set.

Assay: soluble on expression in E. coli; label from the status in PepcDB or PDB records

Q: For “MTEDGVMKIDASTSTIKEPEPADCVILPTHTNEQVVYYKSWIAFGDNPNYLTYNRDLGYADWYGIVDCSDSPPTGPGVYKAFIYVNDLNYQESGNPLFKVTGRLKFLANKDTSDTMMKLEIFEQNRLEELRLSPKKMSDSQVIAIILFDNEETNSAICYSEQLESSIKVHLPVGSPAKAGQLILFTEYNYENDTYFPDPRPDAIEYRECEMTRIENGELLISAKAACSSIETHITYPQSVAFADTFGKVNVAAESMERGVTYRVELAINIIDSEANNVPLFKISDIGEKLTGEENEAFLRKLNDFEELQGTWEDWTPEEIAVELEPVAAAEEPADPEVEEAKIEENGVNDESLTQSESDSVFLPQIESSASSEETMSESNSAENSEKPKKTFGRMPQSLSESSSSTISSSKVGVDHSVIVLNVDNDECVGFETTQLKLMTICTAGVTVPLRPYGIFQFIAAGNNYGKTSIQTQSARVSECEGAVFSSDDVPKISANVIFSSNPKHKSYNKEVGVSDRYGFVEIPRITGDFEFGTVYSTQITMVQYGDPLKACFKAVAPLKRQFIDDLDHYLQVMGKYEDNIYQLSRKNGLGAKSISRLPNEPRNGSKHGSTKRFTTPHVTGLVVDMEKRGNYFGCVWTCFGDVVFKSTPTFSQNGGYPSVGDLVNIRVEILSPGTKDQKNLGASMTEKPASLSTTVIWRNNGFIVKAYLIMKPEKLIYSEDNNRFYEHDQLGIVVADSSIYGSDNEQSKVFEFERLRNPITLGFTTNLMNKCYWAARLPMIHREPSPPEPINKYNDENVYDDFQKGGPQSVNSYRSDRQYQEKPPMQYQSYHDPADTISIHSQDNHRPMETRSNAGTSVSSVDRKEVGVVMKKVDKNTQIVYLSGQKAAAIHHWNTHSQSTIVGNSYIFMYRPIEVHKATHYAPFEITQVVEILNTENHGRVDRSEFSSLFTFDLCNVDQRYVERLAFGEALVLRSNDVGHVVMASNVKTPLNPSMTAVEVCQTYKGKRESENLVGYCRLVYGKVPREIVDGHFSDQFVSAYYFELHEILATSNAYIVRNENLDRRNLRGNTIEEVRDDISIQKRIAHMNFGQNEQQQQQSSLSSRGPTRPYSPVGSYQSSHQNFDNRSAAHNGDGRSTSQSHHSAGGSMNHQNFYQPPVYQSSSSQQSYQPRYNGAPSGPLPPPSSQSSFNGAPAPPHYSEMSNDYNRMVRKLAELTDTAAQMIINNDIRQQIKNISPDLLDDLERNIDACQREKRHYYEKYGN”, which “soluble on expression in E. coli” value is on record?
A: not soluble

Q: For “SKVKVAVRIRPMNRRETDLHTKCVVDVDANKVILNPVNTNLSKGDARGQPKVFAYDHCFWSMDESVKEKYAGQDIVFKCLGENILQNAFDGYNACIFAYGQTGSGKSYTMMGTADQPGLIPRLCSGLFERTQKEENEEQSFKVEVSYMEIYNEKVRDLLDPKGSRQTLKVREHSVLGPYVDGLSKLAVTSYKDIESLMSEGNKSRTVAATNMNEESSRSHAVFKITLTHTLYDVKSGTSGEKVGKLSLVDLAGSERATKTGAAGDRLKEGSNINKSLTTLGLVISALADQSAGKNKNKFVPYRDSVLTWLLKDSLGGNSKTAMVATVSPAADNYDETLSTLRYADRAKHHHHHH”, which “soluble on expression in E. coli” value is on record?
A: soluble

Q: For “SRVLMEQPGYAQMRKLILFQQYQFEPLFVRQKVGFDIDSVTQSTADALYITPSNQYPMGTTLNTEQRAQIIEWASNQEAWILEDDYDSEFQFAHRPYTSLQGLAAQMGRDERVLYIGSFSKVMFNGLRLGYLVVPESLVDKCLMVKDALSGDTPSHIQAAMADFISEGSLLRHIRKMRRVYKSKHEQVCFSIQHYFGDKVRVISQAAGLHVTLSWQQGIDENTWTQRAKKAGIVMRPVSFYEHPDFKARDWQGVVIGYGNVRLDNIDPLIKRLFELFDV”, which “soluble on expression in E. coli” value is on record?
A: not soluble

Q: Which “soluble on expression in E. coli” value does the source give for “MGSDKIHHHHHHMDPRLLPLLSCPRHPTVTLTVEQVERVVNGAIVSGRLRCPVCATTYLIKDGILDMIGQHRPTSAAQVVNEVPVAAWAYERTWRPFALSLLSGEQFPLTRELKLITGLAGAERGGLMVDVGCSNGLYARALEHVRRQRGAGGFVVGIDLSMAMLQEAQRRARHEGLSISFIRASAQAMPFADGTVDALVMGGSLNEIGDIPAALSEWRRLLSPQGRGVMMSLVAASTPIGQGIQQLLASGGLQFPSLAELNHYFTAAGLRLRAQWQYGIVVFSVLQ” here?
A: not soluble

Q: Which “soluble on expression in E. coli” value does the source give for “MVMVNFTAGKWISEPKVSEVTSEFVSITTEPKTDFWQRSYYGFRNENAPALLIDSKDNFTFTAKVSFAYQQLFDQCGLIIYLDNENWFKASIEYENQSFSRLGSVVTNLGYSDWATTDIPLPKEIWYRLSRRGPDFLIESSFDGLVFNQMRIFHLHRLGETTIEMGKCNPPLPTQKVVSFGVYACSPSESSFTAKFTEMSLEPCKWLAHLEHHHHHH” here?
A: soluble

Q: With “MGSDKIHHHHHHMKLRRNMKWNDEGKRIVEMLKLRTPPVGVKFFQEKYEPERAFRPSKYGIKMAVCQAIAFARYIGRTVVLEAEDFGCPPAMLLYGVAEYEGSLKDILVGAQWLKDESCEVAEQKLPLGKYKSFVFGDMTKMAEEPEAVMIFGTPAQIGRLIQAATYFGGAVKANLTAKTASCAEALFPALRGEVAIAVPGAGDRVFAAIQETEMIFAMPYAWTGKILEGLENAGRGANISYPPSPFLMFTPRFPKHYRETAEKFKLV” as the sequence, how does the “soluble on expression in E. coli” value read?
A: not soluble

Q: With “MGSDKIHHHHHHMFGLPGKKSSAVLGVDVSSSSVKLLELSKHGDRYKVESYAVEPLPANAVVEKNITDVEAVGEVLKRVASKSRTSVKQVAVAVSGSAVITKVIQMDGGLNEFEMEDQIALEADQYIPYPLDEVAIDFEVQGPSESNPDQVDVLLAACRKENVDIREDALEIAGLTTKIVDVEAYALERAYSLIEPQLDSQGEELVVAIVDIGATMTTLSVLAEGKTVYTREQIFGGKQLTEEIQRRYGLSLEEAGLAKKQGGLPDDYNEEVLTPFREAVVQQVARALQFFFGASQYNAVDYVVLAGGTASIQGLTEMVEEKTGTPTLVANPFANMAVGSRVNASALSNDAPSLMIACGLAMRSFD” as the sequence, how does the “soluble on expression in E. coli” value read?
A: not soluble

Q: For “MSFTPELNMAVCEFNLDSGCNAKESLIEMANNKISLETFKEHNIKALTMKYVNSESMMWEARKIVRIISRLEADEHQSRVAPKRSRSPGSTSPSASNSSSSSSELSFDMFSSKRTVPMKVTSKPKRVIAQASRTMKPHQQESRQESAEKDRANDEKLKKFIESRKLKEQAKKAANIQKCNEVKEAVMFPAKRMKKRQLEQYAYRFK”, which “soluble on expression in E. coli” value is on record?
A: not soluble

Q: For “MGSDKIHHHHHHMYKKSVDLSLESVLVEIDENKKLMPSRNATVQPVALMRLGLFLPSLKRKGKDTENISIDASSELQSLELARAEGYTDIRITGPRLSMETDFKVWVGIILAFSKYGLNSSTIELPFSEFATFCGFSSKDKDKGLRTRLADSLIRLRSTTIKLASEKDRNGVVSGLLSRGKWDEKDDIMELTADESLWELYQFDRQVLLQMFIIRQLANKGTAQALYTFIESLPERPIPLSFARIKRRLMLTSPNNQQNRVINKAIDELKAVGYLDGDVVKKDGEWHLIITRRTPRPDIKAMSEALKDGE”, which “soluble on expression in E. coli” value is on record?
A: not soluble

Q: With “HMSSGSAGLSSLHRTYSQDCSFKNSMYHVGDYVYVEPAEANLQPHIVCIERLWEDSAGEKWLYGCWFYRPNETFHLATRKFLEKEVFKSDYYNKVPVSKILGKCVVMFVKEYFKLCPENFRDEDVYVCESRYSAKTKSFKKIKLWTMPVSSVRFVPRDVPLPVVRVASVFANTD” as the sequence, how does the “soluble on expression in E. coli” value read?
A: soluble

Q: For “MGSDKIHHHHHHMHRDTVFDLIGIGFGPSNLALAVRLAEEAGVPDLAHCFIERQPEFGWHRGMLLDDCRMQISFLKDLVTMRDPKSRFTFINYLFERGRLADFVNLKSFYPTRVEFHDYLAWVAASFDDRVNYGQTVTGIEAVKATARTNEVEALRVFSRDSEGREWQRVTRALSVGIGGGAQVPEAFAALGTHNIVHSSQYLTSIDRVVGPASSARKRVAVIGAGQSAAEVFVDLTRRYPHVDASLIIRSGALKPADDSPFVNEIFSPAFTDVVYAQPRDGRRALIERFRDTNYAVVDRPLIEQIYEMLYLQNVCAEPRHRLLANTGIETAVRTVNGRIELTLRDRLNGHARAEQFDALVLATGYRRDTHLDLLEGLAPHLGEALAQGNVERDYRLATPASFKPRIYLQGCCEDSHGLSDTLLSVLALRSDEIAASLAHHAAQDRSAGRAGEAQANATAASRMAFAL”, which “soluble on expression in E. coli” value is on record?
A: not soluble

Q: With “MEYHSHTVVTERKVTLLEQGQASDLTDYVANEVRVALVYNGISHTVMLASPENLEEFAIGFTLSERIVSHVNEIKGVDLEFTPEGVLIQVEITQRCFMALKQLRRNMAGRTGCGLCGVAQLEEAVKPVIRVDSDARFNIDHLQFALEQVKDNQHHFKLTGATHAAMGLDLEGQIIAAYEDIGRHIALDKLIGGCSMRHAKRPVAVLLTSRASFEMVQKAASANIQILFAMSAVTSLALELAEKSNITLIGFCRNGRATLYTHGYRLLGLNRASLAKAIAAALEHHHHHH” as the sequence, how does the “soluble on expression in E. coli” value read?
A: not soluble
